# Numbering of substitutions follows the chain as printed.
# T1: 285bZIP V288A (human, UniProt P16220-1 285-339, C300S;C310S;C337S;V288A)
# T1 sequence: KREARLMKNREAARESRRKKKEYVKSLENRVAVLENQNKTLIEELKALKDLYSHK
# T2: 285bZIP M291A (human, UniProt P16220-1 285-339, C300S;C310S;C337S;M291A)
# T2 sequence: T1 sequence with A4V, M7A
# T3: 285bZIP E295A/E299A (human, UniProt P16220-1 285-339, C300S;C310S;C337S;E295A;E299A)
# T3 sequence: T1 sequence with A4V, E11A, E15A
# T4: 285bZIP E287G (human, UniProt P16220-1 285-339, C300S;C310S;C337S;E287G)
# T4 sequence: T1 sequence with E3G, A4V
# T5: 285bZIP E306G (human, UniProt P16220-1 285-339, C300S;C310S;C337S;E306G)
# T5 sequence: T1 sequence with A4V, E22G
# T6: 285bZIP E295G/E299G (human, UniProt P16220-1 285-339, C300S;C310S;C337S;E295G;E299G)
# T6 sequence: T1 sequence with A4V, E11G, E15G
# T7: 285bZIP E299A (human, UniProt P16220-1 285-339, C300S;C310S;C337S;E299A)
# T7 sequence: T1 sequence with A4V, E15A
# T8: 285bZIP E299G/E306G (human, UniProt P16220-1 285-339, C300S;C310S;C337S;E299G;E306G)
# T8 sequence: T1 sequence with A4V, E15G, E22G
# T9: 285bZIP R302A (human, UniProt P16220-1 285-339, C300S;C310S;C337S;R302A)
# T9 sequence: T1 sequence with A4V, R18A
# T10: 285bZIP E295A (human, UniProt P16220-1 285-339, C300S;C310S;C337S;E295A)
# T10 sequence: T1 sequence with A4V, E11A
# Legend:
# Test in all cases: stopped-flow fluorescence (koff/kon); 10 mM Mg2+; 10 mM MES pH 6.5, 150 mM NaCl, 10 mM MgCl2, 0.05% Tween-20, 25 C; NMR: 10 mM Tris-d11, 150 mM NaCl, 10 mM MgCl2, 1 mM NaN3, 5% D2O (NOE at 25 C)
# Details in all cases: protein: recombinant; tags: extra N-terminal Gly; chain copies: 2; label: 5' Alexa Fluor 488; hairpin (self-annealing, 11 bp stem, CCCC loop)
# [1] = target: T1, 285bZIP V288A
# [2] = target: T2, 285bZIP M291A
# [3] = target: T3, 285bZIP E295A/E299A
# [4] = target: T4, 285bZIP E287G
# [5] = target: T5, 285bZIP E306G
# [6] = target: T6, 285bZIP E295G/E299G
# [7] = target: T7, 285bZIP E299A
# [8] = target: T8, 285bZIP E299G/E306G
# [9] = target: T9, 285bZIP R302A
# [10] = target: T10, 285bZIP E295A
binder,measurement,setting,value
CCTGACGTCAGCCCCCTGACGTCAGG (structured_DNA) [AlexaFluor488-CREh],Kd,[1],0.46 ± 0.05 nM
same,Kd,[2],0.31 ± 0.03 nM
same,Kd,[3],0.102 ± 0.008 nM
same,Kd,[4],4.6 ± 0.6 nM
same,Kd,[5],3.9 ± 0.2 nM
same,Kd,[6],170 ± 50 nM
same,Kd,[7],0.0711 ± 0.0011 nM
same,Kd,[8],54 ± 4 nM
same,Kd,[9],13.9 ± 1.8 nM
same,Kd,[10],0.239 ± 0.016 nM
